From IntAct's records for PubMed 12799422

B1: Tyrosine-protein phosphatase non-receptor type 1 (Gallus gallus (Chicken)), O13016 (parent)
chain: MEIEKEFHRLDQAASWAAIYQDIRHEASDFPCKVAKHPRNKNRNRYRDVSPFDHSRIKLNQGDNDYINASLIKMEEAQRSYILTQGPLPNTCGHFWEMVWEQKSRGVVMLNRVMEKGSIKCAQYWPRKEEKEMFFEDTNLKLTLISEDIKSYYTVRQLELENLTTQETREILHFHYTTWPDFGVPESPASFLNFLFKVRESGSLNPEYGPVVVHCSAGIGRSGTFCLVDTCLLLMDKRKDPSSVDVKQVLLEMRKYRMGLIQTADQLRFSYLAVIEGAKFIMGDASVQEQWKELSNEDLDPPPEHTPPPPRPPKRTSEMHNGRMHEHAEFFPKHQVVEEEIRCSVSTAEETVSDGRVFSSVPLITDSTSQDTEIRRRTVGENLHVTAHKEESKSESVEEDDENMMTTWKPFLVNICMFTFLTAGAYLCYRVCFH
B2: Adapter molecule crk (Homo sapiens), P46108 (parent)
chain: MAGNFDSEERSSWYWGRLSRQEAVALLQGQRHGVFLVRDSSTSPGDYVLSVSENSRVSHYIINSSGPRPPVPPSPAQPPPGVSPSRLRIGDQEFDSLPALLEFYKIHYLDTTTLIEPVSRSRQGSGVILRQEEAEYVRALFDFNGNDEEDLPFKKGDILRIRDKPEEQWWNAEDSEGKRGMIPVPYVEKYRPASASVSALIGGNQEGSHPQPLGGPEPGPYAQPSVNTPLPNLQNGPIYARVIQKRVPNAYDKTALALEVGELVKVTKINVSGQWEGECNGKRGHFPFTHVRLLDQQNPDEDFS
partner: B1 chain
B3: Adapter molecule crk (Homo sapiens), P46108 (parent)
chain: B2 chain
B4: Adapter molecule crk (Homo sapiens), P46108 (parent)
chain: B2 chain
partner: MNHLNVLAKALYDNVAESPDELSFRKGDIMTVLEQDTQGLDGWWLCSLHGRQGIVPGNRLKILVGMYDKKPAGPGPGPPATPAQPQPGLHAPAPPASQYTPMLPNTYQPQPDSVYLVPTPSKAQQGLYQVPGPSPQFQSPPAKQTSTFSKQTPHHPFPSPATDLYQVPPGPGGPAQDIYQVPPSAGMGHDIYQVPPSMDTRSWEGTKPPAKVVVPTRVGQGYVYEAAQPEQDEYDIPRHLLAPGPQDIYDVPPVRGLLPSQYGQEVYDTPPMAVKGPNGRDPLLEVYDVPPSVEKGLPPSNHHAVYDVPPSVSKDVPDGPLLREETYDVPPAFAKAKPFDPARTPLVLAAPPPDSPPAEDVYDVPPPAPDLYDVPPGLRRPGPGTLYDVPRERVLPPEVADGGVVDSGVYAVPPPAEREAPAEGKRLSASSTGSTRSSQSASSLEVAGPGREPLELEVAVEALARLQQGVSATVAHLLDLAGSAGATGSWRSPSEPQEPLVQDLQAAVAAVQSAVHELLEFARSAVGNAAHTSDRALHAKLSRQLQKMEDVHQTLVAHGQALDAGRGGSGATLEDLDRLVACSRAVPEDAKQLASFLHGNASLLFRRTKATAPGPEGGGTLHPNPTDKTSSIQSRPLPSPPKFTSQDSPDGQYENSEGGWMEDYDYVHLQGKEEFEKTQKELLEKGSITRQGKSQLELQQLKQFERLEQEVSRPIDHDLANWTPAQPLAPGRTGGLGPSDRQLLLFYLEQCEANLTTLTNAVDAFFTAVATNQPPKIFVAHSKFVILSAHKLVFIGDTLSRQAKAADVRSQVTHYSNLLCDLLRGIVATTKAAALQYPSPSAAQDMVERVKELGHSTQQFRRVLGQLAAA

Variants of: B1
Conditions: with crk_human CRK, P46108

| Variant | effect of a mutation on the interaction |
| --- | --- |
| MEIEKEFHRLDQAASWAAIYQDIRHEASDFPCKVAKHPRNKNRNRYRDVSPFDHSRIKLNQGDNDYINASLIKMEEAQRSYILTQGPLPNTCGHFWEMVWEQKSRGVVMLNRVMEKGSIKCAQYWPRKEEKEMFFEDTNLKLTLISEDIKSYYTVRQLELENLTTQETREILHFHYTTWPDFGVPESPASFLNFLFKVRESGSLNPEYGPVVVHSSAGIGRSGTFCLVDTCLLLMDKRKDPSSVDVKQVLLEMRKYRMGLIQTADQLRFSYLAVIEGAKFIMGDASVQEQWKELSNEDLDPPPEHTPPPPRPPKRTSEMHNGRMHEHAEFFPKHQVVEEEIRCSVSTAEETVSDGRVFSSVPLITDSTSQDTEIRRRTVGENLHVTAHKEESKSESVEEDDENMMTTWKPFLVNICMFTFLTAGAYLCYRVCFH [C215S] | disrupting interaction |

Variants of: B2
Conditions: with ptn1_chick PTPN1, O13016

| Variant | effect of a mutation on the interaction |
| --- | --- |
| Y221F | decreasing interaction |

Variants of: B3
Conditions: with paxi_human PXN

| Variant | effect of a mutation on the interaction |
| --- | --- |
| Y221F | increasing interaction |

Variants of: B4
Conditions: with bcar1_human BCAR1, P56945

| Variant | effect of a mutation on the interaction |
| --- | --- |
| Y221F | increasing interaction |
